Positions count from the first letter of the chain named.

As a reminder, the EC90 is the concentration needed for an effect of 90%. A word on the Kd: it is the free concentration of one partner at which half of the binding sites on the other are occupied at equilibrium, for simple one-to-one binding. In general, EC50 refers to the midpoint of the concentration-response curve.

Assay [1] has as its target T1, human CD40 on cells (human, UniProt P25942 21-277). The assay can be described thus: FACS on B cells in whole blood of healthy subjects; after the fourth once-weekly SC dose, all doses, until Day 39.
Assay [2] has as its target T1, human CD40 on cells. The assay can be described thus: FACS on B cells in whole blood of healthy subjects, free CD40 detected with excess FITC-labeled antibody; 72 hours after a single 120-240 mg SC dose.
Assay [3] addresses T1, human CD40 on cells. The assay can be described thus: FACS on B cells in whole blood of healthy subjects; 240 mg SC dose group, Day 78.
The target in assay [4] is T1, human CD40 on cells. The assay can be described thus: FACS on B cells in whole blood of healthy subjects; 180 mg SC dose group, Day 64.
Assay [5] has as its target T1, human CD40 on cells. The assay can be described thus: FACS on B cells in whole blood of healthy subjects, free CD40 detected with excess FITC-labeled antibody; 72 hours after a single 80 mg SC dose.
Assay [6] has as its target T1, human CD40 on cells. The assay can be described thus: binding to human B cells.
Assay [7] addresses T1, human CD40 on cells. The assay can be described thus: cell-based or functional assay.
Assay [8] addresses T1, human CD40 on cells. The assay can be described thus: cell-based or functional assay. The source holds these as a separate data set.
Assay [9] addresses T2, cynomolgus monkey CD40 on cells (cynomolgus monkey, UniProt G7PG38 21-278).
T2 construct: whole, on cells; Cell surface CD40 on cynomolgus B cells and platelets; also called Cyno CD40; CD40 on cynomolgus monkey B cells and platelets
The assay can be described thus: ratio of binding EC50, human over cynomolgus; ratio > 1 means increased binding to Cyno compared to Human.

Assay [10] deals with T3, human CD40-Fc protein (human, UniProt P25942 21-193).
T3 construct: also called recombinant CD40 protein; not shown: Fc part
T3 sequence (P25942 21-193 limits assumed): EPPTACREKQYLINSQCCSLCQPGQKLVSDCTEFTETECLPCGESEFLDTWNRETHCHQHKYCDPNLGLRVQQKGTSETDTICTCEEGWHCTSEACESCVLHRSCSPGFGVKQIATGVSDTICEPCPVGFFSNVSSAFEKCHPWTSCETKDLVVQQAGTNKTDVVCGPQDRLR
The assay can be described thus: ForteBio Octet, human CD40-Fc, with and without human serum. As to the method: Due to antibody and CD40-Fc bivalency avidity effects prevent Kds below 100 pM from being determined accurately. In addition, the binding to CD40-Fc was analyzed in the absence and presence of 50% human serum and no significant effect of serum on binding was observed (data not shown)

Assay [11] addresses T1, human CD40 on cells. The assay can be described thus: cell binding, flow cytometry (cell line not given). As to the method: The specific binding of humanized antibodies to cellular CD40 was analyzed by flow cytometry using human CD40-transfected HEK293 cells. Concentration-dependent binding of Antibody A, Antibody B, and Antibody C was observed. […] No binding was detected on CD40 negative cells such as non-transfected HEK293 cells or the T cell line HSB-2 thus confirming selective binding to CD40 (data not shown).

The target of assay [12] is T1, human CD40 on cells. The assay can be described thus: FITC-labeled antibody on Ramos cells.
The target in assay [13] is T1, human CD40 on cells. The assay can be described thus: flow cytometry, human CD40-transfected HEK293 cells. Background: In flow cytometry, cells or beads pass a laser one at a time.
Assay [14] addresses T1, human CD40 on cells. The assay can be described thus: cell-based or functional assay. This is another data set of the same source.

T1 sequence (P25942 21-277): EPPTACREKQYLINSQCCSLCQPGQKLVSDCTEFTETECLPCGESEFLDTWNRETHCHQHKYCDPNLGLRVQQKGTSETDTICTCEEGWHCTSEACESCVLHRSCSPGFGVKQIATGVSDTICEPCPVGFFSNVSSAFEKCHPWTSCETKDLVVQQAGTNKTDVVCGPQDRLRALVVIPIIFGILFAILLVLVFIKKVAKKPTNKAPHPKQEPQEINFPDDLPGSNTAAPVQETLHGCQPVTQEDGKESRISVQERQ

On to “an antibody of the present invention (BI 655064)”, for which the CD40 receptor occupancy (RO) in [1] was greater than 90%. Moreover, the CD40 receptor occupancy (RO) in [2] lay within 94 to 95%. This molecule showed a CD40 receptor occupancy (RO) in [3] of 68%. Besides, the CD40 receptor occupancy (RO) in assay [4] is 79%. In addition, in assay [5], the CD40 receptor occupancy (RO) was 89%. Besides, the EC90 in [6] turned out to be 6.85 nM. Also, in [7], the inhibition of CD54 upregulation after the fourth once-weekly SC dose, all doses, up to Day 39 is greater than 90%; the inhibition of CD54 upregulation, 80 mg SC single dose, first post-dose measurement (72 hours) was 87%; the inhibition of CD54 upregulation, 80 mg SC, Day 7 post dose worked out at 95%; the inhibition of CD54 upregulation, 180 mg group, Day 64 came out at 89%. In [7], this molecule displayed an inhibition of CD54 upregulation, 240 mg group, Day 78 of 51%; an inhibition of CD54 upregulation, all other doses (120-240 mg SC), from 72 hours onwards of 95%; an inhibition of CD54 upregulation, higher doses (120-240 mg SC), 72 hours after the first dose greater than 90%.

B1: Antibody C (antibody, human IgG1, kappa, L234A L235A, V domains shown)
VH: QVQLVQSGAEVKKPGASVKVSCTASGFNIKDYYVHWVKQAPGQGLEWMGRIDPEDGDSKYAPKFQGKATMTADTSTSTVYMELSSLRSEDTAVYYCTTSYYVGTYGYWGQGTLVTVSS
VL: DIQMTQSPSSLSASVGDRVTITCSASSSVSYMLWFQQKPGKAPKLLIYSTSNLASGVPSRFSGSGSGTDFTLTISSLQPEDFATYYCQQRTFYPYTFGGGTKVEIKR
notes: also called humanized 2H11
In the case of B1, the “B cell proliferation: Agonism (SI*)” value in assay [8] is < 2 SI (Stimulation Index). In assay [9], the “Species cross-react.: Hu/Cyno Binding (EC50 ratios)” value was 1 ratio. The molecule further had an equilibrium dissociation constant (Kd) in assay [10] of less than 0.1 nM. The molecule further gave an EC50 in [11] of 1.7 nM.

B2: 2H11 (antibody, V domains shown)
VH: EVQLQQSGAELVRPGASVKLSCTASGFNIKDYYVHWVKQRPEKGLEWIGRIDPEDGDSKYAPKFQGKATMTADTSSNTAYLHLSSLTSEDTAVYYCTTSYYVGTYGYWGQGTTLTVSS
VL: QIVLTQSPAIMSASPGEKVTITCSASSSVSYMLWFQQKPGTSPKLWIYSTSNLASGVPARFGGSGSGTSYSLTISRMEAEDAATYYCQQRTFYPYTFGGGTKLEIK
notes: Mouse monoclonal antibody; also called murine anti-CD40 mAb 2H11
Take B2: the binding result in assay [12] is recorded as “binds”.

B3: Antibody A (antibody, human IgG1, kappa, L234A L235A, V domains shown)
VH: EVQLVESGGGLVKPGGSLRLSCAASGFTFSDYGMHWVRQAPGKGLEWVAYISSGNRIIYYADTVKGRFTISRDNAKNSLYLQMNSLRAEDTALYYCARQDGYRYAMDYWAQGTLVTVSS
VL: DIVMTQSPDSLAVSLGERATMSCKSSQSLLNSGNQKNYLTWHQQKPGQPPKLLIYWTSTRESGVPDRFSGSGSGTDFTLTISSLQAEDVAVYYCQNDYTYPLTFGGGTKVEIKR
notes: also called humanized 20E2
As to B3, the “B cell proliferation: Agonism (SI*)” value in assay [8] was < 2 SI (Stimulation Index). Moreover, the “Species cross-react.: Hu/Cyno Binding (EC50 ratios)” value in assay [9] was 3 ratio. The molecule further had a Kd in assay [10] of less than 0.1 nM. In assay [11], the midpoint of the response, the EC50, lay at 1.2 nM.

B4: Antibody B (antibody, human IgG1, kappa, L234A L235A, V domains shown)
VH: B3 VH with L93V, A110G
VL: B3 VL with R18K, A19V, M21I, S22N
notes: also called humanized 20E2
Regarding B4, the “B cell proliferation: Agonism (SI*)” value in [8] was < 2 SI (Stimulation Index). The “Species cross-react.: Hu/Cyno Binding (EC50 ratios)” value in [9] stood at 2 ratio. This molecule registered a Kd in assay [10] of less than 0.1 nM. Besides, the response in assay [11] was half-maximal at 1.5 nM (EC50).

B5: 4D11 (Kirin/Astellas) anti-CD40 antibody (antibody, V domains shown)
VH: QLQLQESGPGLLKPSETLSLTCTVSGGSISSPGYYGGWIRQPPGKGLEWIGSIYKSGSTYHNPSLKSRVTISVDTSKNQFSLKLSSVTAADTAVYYCTRPVVRYFGWFDPWGQGTLVTVSS
VL: AIQLTQSPSSLSASVGDRVTITCRASQGISSALAWYQQKPGKAPKLLIYDASNLESGVPSRFSGSGSGTDFTLTISSLQPEDFATYYCQQFNSYPTFGQGTKVEIK
In the case of B5, the “B cell proliferation: Agonism (SI*)” value in assay [8] was < 2 SI (Stimulation Index). The molecule further gave a Kd in assay [10] of less than 0.1 nM. The EC50 was roughly 1 nM in [13] and 0.9 nM in [11]. Moreover, in [14], the “B cell proliferation assay, average IC50” value is roughly 0.02 nM.

Source of the values: patent publication US20240309105A1 (Boehringer Ingelheim, published 2024).
